Measured values from PMC10629668.

Target: serpin-6, endogenous in silkworm hemolymph (Bombyx mori (endogenous in larval hemolymph))
Experiment: co-IP; antibodies against serpin-1 or serpin-6; hemolymph of naive larvae or of larvae 24 h after injection of LPS, PGN or CDN; immunoblot with antibodies against serpin-1a, serpin-6 and CLIP2

## CLIP2, endogenous in silkworm hemolymph (enzyme)
  intensity of the complex against the CLIP2-serpin-1a complex (after PAMPs stimulation, control hemolymph subtracted): 2 fold
